# In patent US7598343B1, “Pharmaceutical formulations of bivalirudin and processes of making the same” (The Medicines Company, priority 2008, dated 2009):
# Assays:
# Format in all cases: physicochemical
# [1] = Asp^9-bivalirudin level by HPLC after adding pH-adjusting solution in four equal portions with inefficient mixing (Example 1, first part)
# Description: In a first part of the study, the bivalirudin solution (˜600 mL) comprised bivalirudin at a concentration of ˜0.1 mg/mL in a 2.64% w/w mannitol solution. The pH-adjusting solution (233 mL) comprised 0.5 N sodium hydroxide in a 2.64% w/w mannitol solution. Asp^9-bivalirudin levels were measured throughout the experiment by high-performance liquid chromatography (HPLC). pH was also measured through the experiment. One measurement of Asp^9-bivalirudin was taken immediately after the bivalirudin solution was formed (baseline).
# The pH-adjusting solution was added to the bivalirudin solution in four equal portions over the total duration of about 1 hour at a temperature of 5-8° C., each addition separated by about 15 minutes. The resulting compounding solution was mixed at between 600 rpm and 700 rpm throughout the addition of the first and second portions of the pH-adjusting solution, and the pH and Asp^9-bivalirudin levels were recorded (measurements #1 and #2). During the addition of the third portion, the mixer was turned off and the pH and Asp^9-bivalirudin levels were recorded (measurement #3A). The mixture was then subjected to high shear mixing at 4000 rpm for 30 seconds and the pH and Asp^9-bivalirudin levels were recorded (measurement #3B). During addition of the fourth portion, the mixer was turned off and the levels of pH and Asp^9-bivaluridin were recorded (measurement #4A). Mixing was then continued for, at least, two minutes at 5300 rpm and the pH was and Asp^9-bilvairudun levels were recorded (measurement #4B). The mixing rate was decreased to about 3600 rpm for 1 hour and the pH and Asp^9-bivalirudin levels were recorded (measurement #5). A portion of the material from measurement #4a was allowed to stand for 7 hours and the pH and Asp^9-bivalirudin levels were recorded (measurement #6).
# [2] = Asp^9-bivalirudin level by HPLC in portions of compounding solution adjusted to pH 8, 9, 10, 12 over time (Example 1, second part)
# Description: In a second part of the study, four portions of the final compounding solution from the first part of the study were removed. The pH levels of these portions were adjusted to 8, 9, 10, and 12, respectively, using additional pH-adjusting solution and high shear mixing on a Silverson Laboratory Emulsifier (Model L4RT).
# Samples of the portion of the compounding solution adjusted to pH 8 were taken immediately, and after about 80 minutes, 300 minutes, and 370 minutes. Samples of the portion of the compounding solution adjusted to pH 9 were taken immediately, after about 80 minutes, and 300 minutes. Further, samples of the portion of the compounding solution adjusted to pH 10 and 12 were taken immediately, after about 80 minutes and 170 minutes.
# [3] = Asp^9-bivalirudin level by HPLC in compounding solution under high shear mixing (Example 1, third part)
# Excerpt: In a third part of the study, the final compounding solution from the first part of the study was placed into a recirculation vessel for use in a recirculation water bath (Precision Model 181) to be subjected to high shear mixing using a Silverson Laboratory Emulsifier (Model L4RT). Prior to this study, it was thought that bivalirudin solutions were unstable to both heat and shear, thus requiring extreme care in handling bivalirudin during the compounding process. Before subjecting the compounding solution to high shear mixing, the level of Asp^9-bivalirudin was recorded (measurement #1). The compounding solution was then subjected to high shear mixing at ˜6000 rpm for 30 minutes without use of the recirculation water bath; the temperature of the compounding solution due to the high shear mixing rose to about 36° C. A sample was then measured for Asp^9-bivalirudin level (measurement #2). The mixing speed was then slowed to 5000 rpm for 120 minutes and the temperature was measured at about 33° C., and another sample was analyzed for Asp^9-bivalirudin level (measurement #3).
# [4] = Asp^9-bivalirudin level by HPLC after adding pH-adjusting solution in two portions of 75% and 25% at 400 rpm (Example 2)
# Description: The bivalirudin solution (˜760 mL) comprised bivalirudin at a concentration of 0.050 mg/ml dissolved in a 2.64% w/w mannitol solution. The pH-adjusting solution (233 mL) comprised 0.5 N sodium hydroxide in a 2.64% w/w mannitol solution. The experiment was conducted at a temperature of about 8° C.
# The pH-adjusting solution was divided into a 75% portion and a 25% portion of the total pH-adjusting solution volume. First, the pH and Asp^9-bivalirudin levels were measured before addition of the pH-adjusting solution (baseline). During addition of the 75% portion, at about 400 rpm, the pH was monitored during mixing until the pH achieved a constant level at which time the Asp^9-bivalirudin level was also measured (measurement #1). A portion of this material was allowed to sit for about 6.5 hours and the amount of Asp^9-bivalirudin was again measured (measurement #2). The 25% portion of the pH-adjusting solution was added about 30 minutes after the last base addition and mixing was continued at 400 rpm. The pH was initially recorded and then both the pH and Asp^9-bivalirudin levels were measured after about 30 minutes of mixing (measurement #3). The pH and Asp^9-bivalirudin levels were again recorded after mixing at 400 rpm overnight (measurement #4).
# [5] = Asp^9-bivalirudin level by HPLC after constant-rate addition of pH-adjusting solution under high shear mixing (Example 3)
# Description: The bivalirudin solution (675 mL) comprised 64.4 g dissolved in 2.64% w/w mannitol solution. The bivalirudin solution was divided in half for evaluation of adding the pH-adjusting solution at two different mixing rates. The bivalirudin solution was placed in a vessel with a high shear mixer.
# The pH-adjusting solution (131.2 mL) comprised 0.5 N sodium hydroxide in a 2.64% w/w mannitol solution. The pH-adjusting solution was loaded into a burette, which was connected on the bottom to a tube with a hose. The tube was positioned at the base of the high shear mixer blade inside the mixing vessel containing the bivalirudin solution. A clamp was used to restrict the pH-adjusting solution from passing through the hose.
# The speed of the high shear mixer (Silverson Laboratory Emulsifier Model L4RT) was set to either 1500 rpm or 3000 rpm. The clamp on the hose was removed and the pH-adjusting solution was then added to the bivalirudin solution at a controlled, constant rate of approximately 2 L/min.
# The volume of the compounding solution was then adjusted to a final volume of 562.5 mL.
# For the compounding solution mixed at 1500 rpm, after the pH-adjusting solution was added, the mixing speed was increased to approximately 4500 rpm for a short period of time to allow faster and complete dissolution, and then reduced to 1500 rpm until the solution was completely dissolved. After complete dissolution, the resulting compounding solution was moved from the vessel to a beaker which contained a stir bar. The solution was adjusted to a target pH of 5.3 using 19 mL of the pH-adjusting solution, and then the volume was adjusted to a final volume of 562.5 mL.
# For both mixing conditions, the pH was monitored throughout the addition of the pH-adjusting solution to the bivalirudin solution to form the compounding solution. The level of Asp^9-bivalirudin was measured by HPLC before (baseline) addition of the pH-adjusting solution, after the addition of the pH-adjusting solution (measurement #2), and after the volume of the compounding solution was adjusted to mark (measurement #3).
# [6] = Isoelectric point of bivalirudin
substance,measurement,setting,value
D-Phenylalanyl-L-Prolyl-L-Arginyl-L-Prolyl-Glycyl-Glycyl-Glycyl-Glycyl-L-Asparagyl-Glycyl-L-Aspartyl-L-Phenylalanyl-L-Glutamyl-L-Glutamyl-L-Isoleucyl-L-Prolyl-L-Glutamyl-L-Glutamyl-L-Tyrosyl-L-Leucine trifluoroacetate (salt) hydrate [bivalirudin],% Asp^9-bivalirudin,"[1]; #2: after addition of second portion of pH-adjusting solution, pH 4.2",0.43%
same,% Asp^9-bivalirudin,"[1]; #3A: after addition of third portion with no mixing, pH ~6 to 8",0.45%
same,% Asp^9-bivalirudin,"[1]; #3B: same as #3A but after mixing (4000 rpm, 30 seconds), pH 5.0",0.74%
same,% Asp^9-bivalirudin,"[1]; #4A: after fourth portion, sat for 10 minutes with no mixing, pH ~8.5 to 9",0.60%
same,% Asp^9-bivalirudin,"[1]; #4B: same as #4A but after mixing, pH 6.0 to 6.5",0.57%
same,% Asp^9-bivalirudin,"[1]; #5: same as #4A but after high speed mixing for 1 hour, pH 5.0",0.71%
same,% Asp^9-bivalirudin,"[1]; #6: same as #4A but 7 hours later with no mixing, pH ~8.5 to 9",2.05%
same,% Asp^9-bivalirudin,"[1]; Baseline: after bivalirudin solution was formed, pH ~2.5",~0.42%
same,% Asp^9-bivalirudin,"[2]; Baseline, pH 5",0.71%
same,% Asp^9-bivalirudin,"[2]; pH 8, after pH was adjusted",0.71%
same,% Asp^9-bivalirudin,"[2]; pH 8, after ~80 minutes",0.77%
same,% Asp^9-bivalirudin,"[2]; pH 8, after ~300 minutes",1.11%
same,% Asp^9-bivalirudin,"[2]; pH 8, after ~370 minutes",1.26%
same,% Asp^9-bivalirudin,"[2]; pH 9, after pH was adjusted",0.84%
same,% Asp^9-bivalirudin,"[2]; pH 9, after ~80 minutes",1.07%
same,% Asp^9-bivalirudin,"[2]; pH 9, after ~300 minutes",1.84%
same,% Asp^9-bivalirudin,"[2]; pH 10, after pH was adjusted",1.24%
same,% Asp^9-bivalirudin,"[2]; pH 10, after ~80 minutes",2.08%
same,% Asp^9-bivalirudin,"[2]; pH 10, after ~170 minutes",2.59%
same,% Asp^9-bivalirudin,"[2]; pH 12, after pH was adjusted",4.71%
same,% Asp^9-bivalirudin,"[2]; pH 12, after ~80 minutes",8.20%
same,% Asp^9-bivalirudin,"[2]; pH 12, after ~170 minutes",10.95%
same,% Asp^9-bivalirudin,"[3]; #1: before high shear mixing, RT ~20° C.",0.71%
same,% Asp^9-bivalirudin,"[3]; #2: after high shear mixing at 6000 rpm for 30 minutes, 36° C.",0.71%
same,% Asp^9-bivalirudin,"[3]; #3: after mixing rate was reduced to 5000 rpm for 120 minutes, 33° C.",0.75%
same,stability to high shear mixing conditions,[3]; high shear mixing 6000/5000 rpm,stable
same,% Asp^9-bivalirudin,"[4]; #1: after addition of 75% portion, pH peak at 12.2 then dropped to 8-9",0.44%
same,% Asp^9-bivalirudin,[4]; #2: same as #1 but after sitting for 6.5 hours with no stirring,0.88%
same,% Asp^9-bivalirudin,"[4]; #3: remaining 25% added, pH 12.4 initially then 7.7 after 30 minutes, taken from the bottom",2.19%
same,% Asp^9-bivalirudin,"[4]; #3: remaining 25% added, pH 12.4 initially then 7.7 after 30 minutes, taken from the top",1.85%
same,% Asp^9-bivalirudin,"[4]; #4: same as #3 but after mixing overnight, pH 5.0",1.57%
same,% Asp^9-bivalirudin,"[4]; Baseline: after bivalirudin solution was formed, pH 1.71",0.42%
same,% Asp^9-bivalirudin,"[5]; 1500 rpm, #1 after addition of pH-adjusting solution, pH ~6.0",0.31%
same,% Asp^9-bivalirudin,"[5]; 1500 rpm, #2 after compounding solution was adjusted to mark, pH 5.3",0.34%
same,% Asp^9-bivalirudin,"[5]; 1500 rpm, Baseline before addition of pH-adjusting solution, pH ~2.5",0.38%
same,% Asp^9-bivalirudin,"[5]; 3000 rpm, #1 after addition of pH-adjusting solution, pH ~5.6",0.41%
same,% Asp^9-bivalirudin,"[5]; 3000 rpm, #2 after compounding solution was adjusted to mark, pH 5.25",0.40%
same,% Asp^9-bivalirudin,"[5]; 3000 rpm, Baseline before addition of pH-adjusting solution, pH ~2.5",0.43%
same,degradation by high shear mixing,[5]; high shear mixing even up to 4500 rpm,not susceptible to degradation
same,isoelectric point,[6],about 3.6
